According to patent publication US7351690B2, “Knockout identification of target-specific sites in peptides” (priority 2000, dated 2008):
Square brackets hold non-standard residues; d marks the D form. Ends that are not written are not given here. Nle = CCCC[C@H](N)C(=O)O

Experiments:
hMC5-R = target: T1, hMC5-R (Homo sapiens, UniProt P33032); test: competitive inhibition binding assay, 125I-NDP-alpha-MSH, hMC5-R membranes; conditions: for % Inhibition at 1 μM at Melanocortin Receptor 5: 1 μM test peptide, 0.4 nM 125I-NDP-alpha-MSH, hMC5-R membranes
T1 construct: expressed in transfected cells
Procedure, shortened: (§1)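 Membranes from hMC3-R, hMC4-R, hMC5-R or B-16 cells (MC1-R) incubated 90 min at room temperature with 0.4 nM 125I-NDP-alpha-MSH and rhenium-complexed test peptide, typically 1 μM, in HEPES pH 7.2 with Mg/Ca/K. Filter-bound radioactivity counted; % inhibition of specific binding (1 μM alpha-MSH defines nonspecific), triplicate means.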

hMC4-R = target: T2, hMC4-R (Homo sapiens, UniProt P32245); test: competitive inhibition binding assay, 125I-NDP-alpha-MSH, hMC4-R membranes; conditions: for % Inhibition at 1 μM at Melanocortin Receptor 4: 1 μM test peptide, 0.4 nM 125I-NDP-alpha-MSH, hMC4-R membranes
T2 construct: expressed in transfected cells
Procedure, shortened: as §1

MC1-R = target: T3, MC1-R (Mus musculus, UniProt Q01727); test: competitive inhibition binding assay, 125I-NDP-alpha-MSH, B-16 mouse melanoma cell membranes; conditions: for % Inhibition at 1 μM at Melanocortin Receptor 1: 1 μM test peptide, 0.4 nM 125I-NDP-alpha-MSH, B-16 mouse melanoma cell membranes
T3 construct: membranes prepared from hMC3-R, hMC4-R, hMC5-R, and B-16 mouse melanoma cells (containing MC1-R); endogenous in cells; host or cells: B-16 mouse melanoma cells (membranes)
Procedure, shortened: as §1

hMC3-R = target: T4, hMC3-R (Homo sapiens, UniProt P41968); test: competitive inhibition binding assay, 125I-NDP-alpha-MSH, hMC3-R membranes; conditions: for % Inhibition at 1 μM at Melanocortin Receptor 3: 1 μM test peptide, 0.4 nM 125I-NDP-alpha-MSH, hMC3-R membranes
T4 construct: expressed in transfected cells
Procedure, shortened: as §1

T1 sequence (P33032 whole entry): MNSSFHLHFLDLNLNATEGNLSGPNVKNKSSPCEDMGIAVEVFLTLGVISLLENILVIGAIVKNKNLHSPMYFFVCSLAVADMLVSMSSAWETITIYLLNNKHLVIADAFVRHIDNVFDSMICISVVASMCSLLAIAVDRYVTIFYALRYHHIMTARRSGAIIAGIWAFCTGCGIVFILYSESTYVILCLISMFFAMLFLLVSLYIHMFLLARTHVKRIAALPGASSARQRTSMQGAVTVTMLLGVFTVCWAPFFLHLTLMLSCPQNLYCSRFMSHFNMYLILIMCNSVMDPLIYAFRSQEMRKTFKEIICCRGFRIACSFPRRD
T2 sequence (P32245 whole entry): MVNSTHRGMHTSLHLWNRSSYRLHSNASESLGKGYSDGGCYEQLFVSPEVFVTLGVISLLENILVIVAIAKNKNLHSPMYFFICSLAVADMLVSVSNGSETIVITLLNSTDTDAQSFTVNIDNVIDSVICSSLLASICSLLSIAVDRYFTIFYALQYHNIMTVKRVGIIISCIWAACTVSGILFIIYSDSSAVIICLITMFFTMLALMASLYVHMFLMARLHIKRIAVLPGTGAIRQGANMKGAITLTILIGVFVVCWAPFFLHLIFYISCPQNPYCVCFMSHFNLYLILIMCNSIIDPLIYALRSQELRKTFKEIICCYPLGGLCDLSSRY
T3 sequence (Q01727 whole entry): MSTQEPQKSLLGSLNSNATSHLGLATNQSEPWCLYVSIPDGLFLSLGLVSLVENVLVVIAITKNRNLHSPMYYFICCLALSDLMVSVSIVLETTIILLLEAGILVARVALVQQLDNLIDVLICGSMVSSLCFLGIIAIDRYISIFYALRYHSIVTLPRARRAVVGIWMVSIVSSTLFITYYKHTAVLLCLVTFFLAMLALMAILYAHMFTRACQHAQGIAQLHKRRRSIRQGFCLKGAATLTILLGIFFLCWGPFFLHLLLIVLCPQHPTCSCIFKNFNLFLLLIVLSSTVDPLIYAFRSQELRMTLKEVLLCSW
T4 sequence (P41968 whole entry): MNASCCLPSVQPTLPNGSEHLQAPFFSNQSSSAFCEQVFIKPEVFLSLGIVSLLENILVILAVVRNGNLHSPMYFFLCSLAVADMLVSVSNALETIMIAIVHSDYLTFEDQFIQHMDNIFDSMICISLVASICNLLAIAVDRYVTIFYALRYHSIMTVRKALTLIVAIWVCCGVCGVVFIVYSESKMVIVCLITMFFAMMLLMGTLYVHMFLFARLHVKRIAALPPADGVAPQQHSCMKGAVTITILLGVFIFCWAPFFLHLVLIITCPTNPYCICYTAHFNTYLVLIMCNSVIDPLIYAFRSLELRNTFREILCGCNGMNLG

| Substance | % Inhibition at 1 μM at Melanocortin Receptor 5 (hMC5-R) [%] | % Inhibition at 1 μM at Melanocortin Receptor 4 (hMC4-R) [%] | % Inhibition at 1 μM at Melanocortin Receptor 1 (MC1-R) [%] | % Inhibition at 1 μM at Melanocortin Receptor 3 (hMC3-R) [%] | binding to MC5-R, in words (hMC5-R) | binding to MC4-R, in words (hMC4-R) | binding to MC1-R, in words (MC1-R) | binding to MC3-R, in words (hMC3-R) |
| --- | --- | --- | --- | --- | --- | --- | --- | --- |
| Tyr-Val-Nle-Gly-Cys-His-D-Phe-Arg-Trp-Asp-Arg-Phe-NH2 (YV[Nle]GCH[dF]RWDRF-NH2; not fully specified (bridges); printed as Tyr-Val-Nle-Gly-Cys-His-D-Phe-Arg-Trp-Asp-Arg-Phe-NH2; numbers in words are those of the source; also: oxorhenium(V) N3S1 chelate complex (Re=O)) [3-9] | 67 | 55 | 77 | 69 | – | – | – | – |
| Tyr-Val-Nle-Gly-Cys-His-Phe-Arg-Trp-Asp-Arg-Phe-NH2 (YV[Nle]GCHFRWDRF-NH2; not fully specified (bridges); printed as Tyr-Val-Nle-Gly-Cys-His-Phe-Arg-Trp-Asp-Arg-Phe-NH2; numbers in words are those of the source; also: oxorhenium(V) N3S1 chelate (Re=O) with Cys) [4-8] | 45 | −1 | 13 | 33 | – | – | – | – |
| Tyr-Val-Nle-Gly-His-Cys-Arg-Trp-Asp-Arg-Phe-NH2 (YV[Nle]GHCRWDRF-NH2; numbers in words are those of the source; also: oxorhenium(V) N3S1 chelate (Re=O) with Cys) [5-6] | 21 | 4 | 74 | 26 | – | – | – | – |
| Tyr-Val-Nle-Gly-His-Cys-D-Phe-Arg-Trp-Asp-Arg-Phe-NH2 [3-7] (YV[Nle]GHC[dF]RWDRF-NH2; numbers in words are those of the source; also: oxorhenium(V) N3S1 chelate complex (Re=O)) | 56 | 28 | 39 | 50 | – | – | – | – |
| Tyr-Val-Nle-Gly-His-Cys-D-Phe-Arg-Trp-Asp-Arg-Phe-NH2 [3-8] (YV[Nle]GHC[dF]RWDRF-NH2; numbers in words are those of the source; also: oxorhenium(V) N3S1 chelate complex (Re=O)) | 84 | 55 | 86 | 60 | – | – | – | – |
| Tyr-Val-Nle-Gly-His-Cys-Phe-Arg-Trp-Asp-Arg-Phe-NH2 (YV[Nle]GHCFRWDRF-NH2; numbers in words are those of the source; also: oxorhenium(V) N3S1 chelate (Re=O) with Cys) [4-7] | 15 | 4 | −4 | 17 | – | – | – | – |
| Tyr-Val-Nle-Gly-His-D-Phe-Arg-Cys-Asp-Arg-Phe-NH2 (YV[Nle]GH[dF]RCDRF-NH2; numbers in words are those of the source; also: oxorhenium(V) N3S1 chelate complex (Re=O)) [5-4] | 58 | 18 | 86 | 11 | – | – | – | – |
| Tyr-Val-Nle-Gly-His-D-Phe-Arg-Cys-Trp-Asp-Arg-Phe-NH2 (YV[Nle]GH[dF]RCWDRF-NH2; also: Re complex) [3-5] | 81 | 33 | 83 | 45 | – | – | – | – |
| Tyr-Val-Nle-Gly-His-D-Phe-Arg-Trp-Asp-Arg-Cys-NH2 (YV[Nle]GH[dF]RWDRC-NH2; numbers in words are those of the source; also: oxorhenium(V) N3S1 chelate complex (Re=O)) [5-1] | 98 | 95 | 101 | 92 | – | – | – | – |
| Tyr-Val-Nle-Gly-His-D-Phe-Arg-Trp-Asp-Arg-Cys-Phe-NH2 (YV[Nle]GH[dF]RWDRCF-NH2; also: Re complex) [3-2] | 100 | 89 | 99 | 91 | – | – | – | – |
| Tyr-Val-Nle-Gly-His-D-Phe-Arg-Trp-Asp-Arg-Phe-Cys-NH2 (FRWDRFC; Tyr-Val-Nle-Gly-His N-term; D-residue; amide; printed: Phe-Arg-Trp-Asp-Arg-Phe-Cys-) [3-1] | 102 | 98 | 95 | 96 | – | – | – | – |
| Tyr-Val-Nle-Gly-His-D-Phe-Arg-Trp-Asp-Cys-Arg-Phe-NH2 (YV[Nle]GH[dF]RWDCRF-NH2; also: Re complex) [3-3] | 99 | 99 | 99 | 95 | – | – | – | – |
| Tyr-Val-Nle-Gly-His-D-Phe-Arg-Trp-Asp-Cys-Phe-NH2 (YV[Nle]GH[dF]RWDCF-NH2; numbers in words are those of the source; also: oxorhenium(V) N3S1 chelate complex (Re=O)) [5-2] | 61 | 58 | 95 | 39 | – | – | – | – |
| Tyr-Val-Nle-Gly-His-D-Phe-Arg-Trp-Cys-Arg-Phe-NH2 (YV[Nle]GH[dF]RWCRF-NH2; numbers in words are those of the source; also: oxorhenium(V) N3S1 chelate complex (Re=O)) [5-3] | 100 | 97 | 100 | 93 | – | – | – | – |
| Tyr-Val-Nle-Gly-His-D-Phe-Arg-Trp-Cys-Asp-Arg-Phe-NH2 (YV[Nle]GH[dF]RWCDRF-NH2; also: Re complex) [3-4] | 100 | 94 | 98 | 88 | – | – | – | – |
| Tyr-Val-Nle-Gly-His-D-Phe-Cys-Arg-Trp-Asp-Arg-Phe-NH2 (YV[Nle]GH[dF]CRWDRF-NH2; also: Re complex) [3-6] | 31 | 31 | 52 | 20 | – | – | – | – |
| Tyr-Val-Nle-Gly-His-D-Phe-Cys-Trp-Asp-Arg-Phe-NH2 (YV[Nle]GH[dF]CWDRF-NH2; numbers in words are those of the source; also: oxorhenium(V) N3S1 chelate complex (Re=O)) [5-5] | 28 | 26 | 67 | 15 | – | – | – | – |
| Tyr-Val-Nle-Gly-His-Phe-Arg-Cys-Trp-Asp-Arg-Phe-NH2 (YV[Nle]GHFRCWDRF-NH2; numbers in words are those of the source; also: oxorhenium(V) N3S1 chelate (Re=O) with Cys) [4-5] | 68 | 74 | 89 | 87 | preserved all receptor binding | preserved all receptor binding | preserved all receptor binding | preserved all receptor binding |
| Tyr-Val-Nle-Gly-His-Phe-Arg-Trp-Asp-Arg-Cys-Phe-NH2 (YV[Nle]GHFRWDRCF-NH2; numbers in words are those of the source; also: oxorhenium(V) N3S1 chelate (Re=O) with Cys) [4-2] | 51 | 23 | 75 | 49 | – | – | – | – |
